Among the data in US20200339638 are activity values, retold here.

Where only a bound is given, the exact number is not on record here.

Common to all, as to test: cell_activity
In one data set the test system is ZFP-TF 75109 (synthetic). Particulars: expanded isoform, C9 patient fibroblasts; about 50% total C9 maintained.
Another data set deals with ZFP-TF 75114 (synthetic). Particulars: expanded sense transcript, C9021 fibroblasts; total C9 preserved >50%; no repression in C9-BAC mice (p172).
A further data set deals with ZFP-TF 75115 (synthetic). Particulars: expanded sense transcript, C9021 fibroblasts; total C9 preserved >50%.

As for “CACGCCCCGGCCCCGGCCCCGGCCCCTA (double strand) [C9orf72 antisense target, frame 4]”, the activity is 70 % repression in the data set on ZFP-TF 75109 (synthetic), greater than 70 % repression with ZFP-TF 75114 (synthetic) and greater than 70 % repression in the data set with ZFP-TF 75115 (synthetic).
